According to publication doi:10.1101/2025.08.11.669711, “Site-Specific Nanobody Inhibitors of the Proteasomal Deubiquitinase UCH37” (bioRxiv, 2025):
Positions count from the first letter of the chain named. Numbers in names are those of the source.

How the values were obtained:
UCH37•RPN13 = target: T1, UCH37•RPN13 (Homo sapiens, strain); test: MST; nanobody labelled with fluorescein isothiocyanate at 20 nM (Nb-ncS1) or 50 nM (Nb-cS1); UCH37•RPN13 titrated 4 μM to 0.12 nM or 46 μM to 2.8 nM; 50 mM Tris pH 7.4, 150 mM NaCl, 10 mM MgCl2, 0.05% tween-20; room temperature; 1:1 Kd fit; duplicates; settings: both partners purified
T1 construct: from His8-MBP-TEV-UCH37 in pVP16 (DNASU); RPN13 (ADRM1), His10-RPN13 in pET19b; source: E. coli BL21(DE3) pLysS, co-purified (amylose, TEV, Ni-NTA, Superdex 200); not shown: His8, N-terminal, cleaved; MBP, N-terminal, cleaved
T1 chain 1: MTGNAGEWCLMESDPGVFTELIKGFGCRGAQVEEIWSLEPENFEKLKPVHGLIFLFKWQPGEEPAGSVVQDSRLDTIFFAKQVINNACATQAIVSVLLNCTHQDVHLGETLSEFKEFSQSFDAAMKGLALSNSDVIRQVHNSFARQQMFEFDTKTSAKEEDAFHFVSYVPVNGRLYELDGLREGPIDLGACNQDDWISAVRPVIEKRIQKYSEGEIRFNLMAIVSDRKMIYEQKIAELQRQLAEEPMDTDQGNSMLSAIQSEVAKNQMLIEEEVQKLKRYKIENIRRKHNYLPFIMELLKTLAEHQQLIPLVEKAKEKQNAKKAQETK
T1 chain 2: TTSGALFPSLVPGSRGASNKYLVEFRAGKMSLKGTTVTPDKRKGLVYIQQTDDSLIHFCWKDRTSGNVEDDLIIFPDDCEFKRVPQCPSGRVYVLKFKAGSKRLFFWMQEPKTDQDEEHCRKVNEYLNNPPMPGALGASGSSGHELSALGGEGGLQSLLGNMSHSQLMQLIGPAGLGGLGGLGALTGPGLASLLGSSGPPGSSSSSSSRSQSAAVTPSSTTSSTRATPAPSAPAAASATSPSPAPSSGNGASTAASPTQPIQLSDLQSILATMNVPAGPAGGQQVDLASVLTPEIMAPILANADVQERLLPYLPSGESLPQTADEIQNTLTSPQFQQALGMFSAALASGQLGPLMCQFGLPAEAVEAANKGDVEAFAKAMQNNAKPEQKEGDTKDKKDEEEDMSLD

UCH37•RPN13^DEUBAD [1] = target: T2, UCH37•RPN13^DEUBAD (Homo sapiens, strain); test: SEC-MALS; nanobodies incubated with UCH37•RPN13^DEUBAD on ice 30 min; TSKgel G3000SWXL; 50 mM sodium phosphate pH 6.5, 150 mM sodium chloride, 10% isopropanol; room temperature; settings: both partners purified
T2 construct: from His8-MBP-TEV-UCH37 in pVP16 (DNASU); RPN13 (ADRM1) DEUBAD domain, aa 253-407, cloned from His10-RPN13 in pET19b; source: E. coli BL21(DE3) pLysS, co-purified (Ni-NTA, TEV, GST resin, 3C, Superdex 200); not shown: His8, N-terminal, cleaved; MBP, N-terminal, cleaved; GST, N-terminal, cleaved
T2 chain 1: T1 chain 1
T2 chain 2: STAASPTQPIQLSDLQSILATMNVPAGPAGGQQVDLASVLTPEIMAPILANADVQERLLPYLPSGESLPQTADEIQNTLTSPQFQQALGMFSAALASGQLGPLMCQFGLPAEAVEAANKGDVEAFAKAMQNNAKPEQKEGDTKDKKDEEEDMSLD

UCH37 (endogenous) [2] = target: T3, UCH37 (endogenous) (Homo sapiens (HEK293FT, endogenous)); test: affinity purification with mass spectrometry; WT HEK293FT transfected with HaloTag nanobodies; immunoprecipitation, on-bead trypsin digestion, TMT labelling; compared with Halo-Nb-ctrl; settings: partners not purified
T3 construct: endogenous UCH37 (UCHL5) of HEK293FT cells; also called UCHL5
T3 chain: T1 chain 1

[3] = target: translation elongation factor EEF2 (Homo sapiens, UniProt P13639); test: affinity purification with mass spectrometry; as a15, but UCH37KO HEK293FT cells; settings: partners not purified
HSP70 chaperone HSPA1B = target: T4, HSP70 chaperone HSPA1B (Homo sapiens, UniProt P0DMV9); test: as above; settings: partners not purified
T4 construct: endogenous HSPA1B; source: endogenous, UCH37KO HEK293FT lysate
T4 sequence (P0DMV9 whole entry): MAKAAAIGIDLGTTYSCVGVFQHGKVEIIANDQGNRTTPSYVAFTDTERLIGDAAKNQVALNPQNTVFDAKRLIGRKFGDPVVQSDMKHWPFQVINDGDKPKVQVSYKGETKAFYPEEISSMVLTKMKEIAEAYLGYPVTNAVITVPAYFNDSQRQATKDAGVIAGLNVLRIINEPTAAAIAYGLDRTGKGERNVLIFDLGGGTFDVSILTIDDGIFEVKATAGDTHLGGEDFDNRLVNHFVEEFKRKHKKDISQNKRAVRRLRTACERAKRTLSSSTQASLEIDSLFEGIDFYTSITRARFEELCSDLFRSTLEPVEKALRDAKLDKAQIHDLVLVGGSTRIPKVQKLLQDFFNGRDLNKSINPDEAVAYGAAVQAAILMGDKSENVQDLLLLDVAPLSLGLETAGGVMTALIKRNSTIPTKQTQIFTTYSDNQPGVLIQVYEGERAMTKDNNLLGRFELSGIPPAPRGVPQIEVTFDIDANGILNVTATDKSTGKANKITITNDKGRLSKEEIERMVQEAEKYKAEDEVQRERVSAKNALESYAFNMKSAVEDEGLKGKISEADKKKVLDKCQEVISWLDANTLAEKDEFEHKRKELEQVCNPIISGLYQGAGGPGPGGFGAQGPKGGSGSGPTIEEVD

UCH37 (endogenous) [4] = target: T3, UCH37 (endogenous); test: co-IP; WT HEK293FT transfected with HA-Flag-tagged nanobodies; anti-FLAG resin 3 hours 4 °C; lysis in 50 mM HEPES pH 7.5, 50 mM NaCl, 5 mM MgCl2, 2 mM ATP, 1 mM DTT, 10% glycerol; blots of UCH37 and proteasome subunits; settings: partners not purified
UCH37 [5] = target: T5, UCH37 (Homo sapiens, strain); test: not stated; recombinant purified Nb-v1 with free UCH37 (Supplementary Figure 2b); settings: both partners purified
T5 construct: from His8-MBP-TEV-UCH37 in pVP16 (DNASU); The purification of free UCH37 is not described; in the complexes with RPN13 the His-MBP tag was removed with TEV protease; also called UCHL5; free UCH37; source: E. coli, purified (His-MBP-TEV-UCH37 construct; individually purified for the crystal)
T5 chain: T1 chain 1

UCH37 [6] = target: T5, UCH37; test: SPR; BIACORE T200, His-Nb immobilised on NTA chip (about 30 RU); purified UCH37 injected, single cycle kinetics; 50 mM HEPES pH 7.5, 50 mM NaCl, 50 μM EDTA, 0.005% TWEEN 20; 25 °C; 1:1 model; settings: both partners purified
UCH37•RPN13^DEUBAD [7] = target: T2, UCH37•RPN13^DEUBAD; test: native MS; 150 mM ammonium acetate pH 6.8; UCH37•RPN13^DEUBAD variants premixed with Nb-ncS1 in equimolar ratio, 1 hour on ice; final 10 uM; nanospray, Synapt G2; settings: both partners purified
Ub-UCH37•RPN13^DEUBAD = target: T6, Ub-UCH37•RPN13^DEUBAD (Homo sapiens, strain, active site cysteine covalently linked to Ub propargylamine (Ub-PA) | C-terminal propargylamine after residue 75, linked to the active site cysteine of UCH37; biotin on the Avi tag in the …); test: as above; settings: both partners purified
T6 construct: from His8-MBP-TEV-UCH37 in pVP16 (DNASU); RPN13 (ADRM1) DEUBAD domain, aa 253-407, cloned from His10-RPN13 in pET19b; ubiquitin residues 1-75 (Ub_(1-75)-propargylamine, made from Avi-Ub_(1-75)-intein); In the pull-down it was offered as a mixture with unconjugated UCH37•RPN13^DEUBAD; also called Ub conjugated UCH37•RPN13^DEUBAD; UCH37•RPN13^DEUBAD -Ub-PA; source: UCH37•RPN13^DEUBAD (E. coli, …)

B1: Nb-cS1 (His-tagged) (VHH)
VHH: QVQLQESGGGLVQAGGSLRLSCAASGYISRPRTMGWYRQAPGKEREFVAIISNGAITNYADSVKGRFTISRDNAKNTVYLQMNSLKPEDTAVYYCAAGRNIWHAYWGQGTQVTVSS
notes: synthetic nanobody from a yeast display library: clone Nb-v2 matured with L47F, T50I, K99R; Cloned into pET28b; Labelled with fluorescein isothiocyanate for MST; also called 6xHis-tagged Nb-cS1; cNb; source: E. coli BL21 (DE3), purified (Ni-NTA, Superdex 75)
UCH37•RPN13
  Kd: 200 nM
UCH37•RPN13^DEUBAD [1]
  stoichiometry N: 1

B2: Halo-Nb-cS1 (expressed in cells) (VHH)
VHH: B1 VHH
notes: as the VHH of m15 (Nb-cS1); The authors suspect that this fusion is misfolded in human cells; also called Halo-tagged Nb-cS1; source: HEK293FT (WT or UCH37KO), transiently transfected, in lysate; not shown: HaloTag, C-terminal, kept
UCH37 (endogenous) [2]
  binding result: binds
[3]
  binding result: binds
HSP70 chaperone HSPA1B
  binding result: binds

B3: HA-Flag-tagged Nb-cS1 (VHH)
VHH: B1 VHH
notes: as the VHH of m15 (Nb-cS1); source: HEK293FT, transiently transfected (1436 pcDNA3 Flag HA vector), in lysate or in fixed cells
UCH37 (endogenous) [4]
  binding result: binds

B4: Nb-v1 (recombinant) (VHH)
VHH: QVQLQESGGGLVQAGGSLRLSCAASGYIFRSYRMGWYRQAPGKERELVAAIGLGGNTYYADSVKGRFTISRDNAKNTVYLQMNSLKPEDTAVYYCAALHGKPPAFSPFAYWGQGTQVTVSS
notes: most enriched clone of the first yeast display selection, parent of Nb-ncS1 (Nb-ncS1 = Nb-v1 with Q1R, L80Q, H99Y, A109P); His-tagged nanobodies were made in E. coli BL21 (DE3) by the general method; source: recombinant production and purification
UCH37 [5]
  Kd: 0.3 nM

B5: Nb-ncS1 (His-tagged) (VHH)
VHH: B4 VHH with Q1R, L80Q, H99Y, A109P
notes: as the VHH of Nb-v1 with the four stated changes; Cloned into pET28b; Labelled with fluorescein isothiocyanate for MST; also called 6xHis-tagged Nb-ncS1; His-Nb; source: E. coli BL21 (DE3), purified (Ni-NTA, Superdex 75)
UCH37 [6]
  Kd: 0.125 nM
UCH37•RPN13^DEUBAD [7]
  stoichiometry N: 1
Ub-UCH37•RPN13^DEUBAD
  stoichiometry N: 1
